# Results: the DeepSol protein solubility set
# Assay: soluble on expression in E. coli; label from the status in PepcDB or PDB records
row,Sequence,soluble on expression in E. coli
1,MKIHPTAIIDPKAELHESVEVGPYSIIEGNVSIQEGTIIEGHVKICAGSEIGKFNRFHQGAVIGVMPQDLGFNQQLLTKTVIGDHNIFREYSNIHKGTKEDSPTVIGNKNYFMGNSHVGHDCILGNNNILTHGAVLAGHVTLGNFAFISGLVAVHQFCFVGDYSMVAGLAKVVQDVPPYSTVDGNPSTVVGLNSVGMKRAGFSPEVRNAIKHAYKVIYHSGISTRKALDELEASGNLIEQVKYIIKFFRDSDRGVTNHR,soluble
2,MKILHTADWHLGQTFYEYDRREEHLHFLEWLKQQIRQHEIDVLLIAGDVFDSPNPSAESQRMYYRFLREVTSENPSLQIIIIAGNHDSAARLEAPNPLLENMNVTVRGVVRRNAEGDIDLQHLIVPLYTEGEVTAYCLAVPYLRQGDYPSAENYSKGVQLLYEQLFNEVKEKGLPVIAMGHLQATGSEISEDDRSERTVIGGLECVSPDAFDEAIAYTALGHLHRSQRVSHRENVRYSGTPMPMSFAERNNASGVVMITISAEGTGIERLA,not soluble
3,MKILYIILFIQIGWIFPLSAQKQDSIYIGTRHTLFSEILNEERKYWIYVPETKAGEKGKAYPVLYLLDGDSFFHSVVGFTRFFSSSKTSNLPPCIVVAVLNTDRTRDFTPTCSAARRDGTICPYDKPAGGGAEQFHRFLIEELRLEVENKVPANGTNFLVGHSYAGLFTLQTLSNHPESFDSYIAIDPSLWWDRGVFLQQAAKNVYQKDFSGKHLYVAFATRQRPAIKLIQFSLADSLKNKIIPEMKNKHLHVVYKKFPDEVHGTIALPAIFDGLKSLFHNTISTKEAT,not soluble
4,MKIMILGIDIGGANTKITEIEGDNYKIHHIYFPMWKKKDELEDLLKNYNDNVDYVALVMTAELADCYKTKKEGVEDIIDKVEKAFNCPVYVFDVNGNFLTSEEAKKNYLDVSASNWNATAKFVAEFIKDSCILVDMGSTTTDIIPIKDKEVLAEKTDLDRLMNNQLVYVGTLRTPVSFLANKIEFRGKLTNLSSEYFAITADISLILNKITEEDYTCDTPDGAGKDFESCLTRLVRVLCADREMVKDDELIDFANKLYNKLLELIRENVDTIAKRYNLNDVVITGLGEEILKDALDEYNIISIKETYGKDVSLATPSFAVAKLLQKQLDKLEHHHHHH,not soluble
5,MKIRDLLKARRGPLFSFEFFPPKDPEGEEALFRTLEELKAFRPAFVSITYGAMGSTRERSVAWAQRIQSLGLNPLAHLTVAGQSRKEVAEVLHRFVESGVENLLALRGDPPRGERVFRPHPEGFRYAAELVALIRERYGDRVSVGGAAYPEGHPESESLEADLRHFKAKVEAGLDFAITQLFFNNAHYFGFLERARRAGIGIPILPGIMPVTSYRQLRRFTEVCGASIPGPLLAKLERHQDDPKAVLEIGVEHAVRQVAELLEAGVEGVHFYTLNKSPATRMVLERLGLRPASGQP,soluble
6,MKITVFGATGNVGNRVITEALLRGHEITAVLRNNARANEFDSSVKVVIGHADNVDDVVKWSDGQDLIISATRPPQGLESQLVDTAKALLSGLAQTKVRLLLVGGAASLTVPNSNGMLVVDDTDLVPTAWRDIALACLAQHKLCQENESVDWSYISPPAVIVPGERTGIFRTGSDELLVDEQGQSTISLEDFAIALLDEAEVVKHKRKRFTVAYLEHHHHHH,not soluble
7,MKIYIQPLSVNSHTVEVLANSLPKIFNAEVFVLPASDVSLKCYNASRRQYNSTCILRMLPPIKVTLGVTGKDIYAKGMNFVFGEAELGGARAVLSVFRLTTADSELYRERVVKEAVHEIGHVLGLKHCSNNCVMRFSNSVQDVDRKPVSFCRECASKIRYLEHHHHHH,soluble
8,MKIYSQGDQAIVVSIEKNVSQRLTEDLLSLRAYLIDKSYPFITEIVATESDLMICYDARDMIKHHHIQSPFLYMKALIDSIKLEIRHHRQQLQAKYIQKQQSVNIPVIYGGEFGPDLQHLLKHLKLKLEDFVKLHTQEKYFVSMMGYSPGFPYLTGMNKKLHVNHTSEKKKFIPCGSVIMEGKKCGIVTTDTYNDWLVIGYTPVQLFFPEQQNFTLLKLGDNVTFESKDINEIELGDYKTCQSLEHHHHHH,not soluble
9,MKKDNTVFNDLQASLKQAVAIRQGKMPPSRVFKVETVDVKATREKTHMSQTEFAKAIHVSVRTLQNWEQGHRNPTGPAVALLKIVASAPDIAVRALRTA,not soluble
10,MKKEIIVYTISDSLGETSQKLLAAASAQYPDISFLNRYNFSFVTTEEELLEILKDALKDKALVVSTLVSKQLITAAKEFSERTGLLYLDLMAPFFELIQAKAGVDPIEEPGRRHQLDRAYFDKISAIEFAVKYDDGKNPQGFLDSDILLLGVSRTSKTPVSMYLANQGYRVSNLPLIPEVPLPPILEEMDPQKMIGLVCSPETLGQIRSSRLASLGLGNETSYTNVERIEQELAYAEEIFAKYGIPVIDVTAKSVEETAFLIKEKLDERN,not soluble
11,MKKFSGIIPPVSSTFHRDGTLDKKAMREVADFLINKGVDGLFYLGTGGEFSQMNTAQRMALAEEAVTIVDGRVPVLIGVGSPSTDEAVKLAQHAQAYGADGIVAINPYYWKVAPRNLDDYYQQIARSVTLPVILYNFPDLTGQDLTPETVTRLALQNENIVGIKDTIDSVGHLRTMINTVKSVRPSFSVFCGYDDHLLNTMLLGGDGAITASANFAPELSVGIYRAWREGDLATAATLNKKLLQLPAIYALETPFVSLIKYSMQCVGLPVETYCLPPILEASEEAKDKVHVLLTAQGILPV,not soluble
12,MKKGTVLNSEISSVISRLGHTDTLVVCDAGLPIPNSTARIDMALTQGVPSFMQVVDVVTREMQVEAAILATEIKQQNPQLHETLLTHLEQLQQHQGNTIKISYTTHEQFKKLTADSQAVIRSGECSPYANVILCAGVTF,not soluble
13,MKKGVHLVFILVASLLSSFSVMAQSLQASVNKTEVAKNEVINLRIMADSEVASDAIDFSVLEKDFFLGQPRYGRSSNNINGRKYQRTEWSISIAPMKEGIITIPSFSADGMKTEPIQLKVTANKSAPDLDDLFSFNMSVDNHTLYPQQSANLRMQLIIKADTRRLDNPQVV,not soluble
14,MKKIATATIATAGIATFAFAQHDADAAENNNSGYNPNDPSSYSYSYTIDQQGQYHYTWQGNWNPSNSDQGHTSNGYSNANSTNNNATQSYTTNNQGTGGKGAVSHSTSNSNVKVSTTSAPSNSNGSNSISNTSGSSNNLYTAGQCTYYVYDKVGGKIGSTWGNANNWASAAAASGYTVNNSPASGSVLQSTAGGYGHVAYVENVNSDGSINVSEMNYGQGAGVVTSRTISASEASGYNYIH,not soluble
15,MKKIHMIPAALLIGSLALVSCAPSQPTQNAQTVSSVMTETPTYTSSSRSVESTAGTIAASEEATMTLLENSSGDPGSDSGGARYSLNSLKVSEQAAANAVLKAVLNDVSYQEFADSSYLEITGTPSADGTWGISFGGPSESASVEFSDGSISFSPVDMTVPATRLPQMGAFYETLTEEQLGMLETGLAVSTVDSSQQEMLLDLVSNSIGLADTETTATAISKIRATLSETYLFGTPDGLTLALSGPHVDFEVSHQGSTAKITYRDPSTDTLTAEDRVDTASVAAAPPEVVLEHHHHHH,not soluble
16,MKKILDACCGSRMFWFDKQNDQVLFMDNRKHYEKLESGHIVAVNPNIVADFRKMPFDDNSFYHVVFDPPHLLRAGSNSWLAKKYGKLNEQTWKEDIQKGFSECMRVLKPNGTLVFKWNEDQIKLSEILSIIDYEPLYGNKRAKTHWLVFMKESEENESNGLEHHHHHH,not soluble
17,MKKLIVDLDGTLTQANTSDYRNVLPRLDVIEQLREYHQLGFEIVISTARNMRTYEGNVGKINIHTLPIITEWLDKHQVPYDEILVGKPWCGHDGFYIDDRAVRPSEFASMNLEEIHQLFEKEKSCS,soluble
18,MKKLLSACLILFTVVCSAYAADEKEAAPAAEYAYYGFEPEIVTNYISNRKKLGFVKISVELMVKSPDDLVIVERHDPLLRAAIIEVLGNQAEEKVKSLTGREEIRRECFDMVNNLLTKEAGKPLVVNLLFTSYLYD,not soluble
19,MKKLLSSDRIKAEALRLGFSACGLAPAEAVDETVATAFRQWLADGCQAEMAYMQNYEDKRLDPRLLVEGARTVISVALNYYPAKKLPEGEYQIAWYAYGKDYHDVMKRKLKELFEFIEKEVSFSEETDSTIASTNNIGTYTENYASAPQAPVSQTSASPLQGRIFCDTAPILERYWAWRTGLGWIGKNTHLIIPHAGSCFFLGEIILDREADNYDSPQRNQCGSCTRCLDACPTKALEAPFRLNSERCLSYLTIEYRGELSLNTGKKMGNKIYGCDECLKACPWNRFATPCRTAEFQPSPSLLSMKKDDWHSLSEEQYKTIFKGSAVKRAKYSGLMRNIKIIK,not soluble
20,MKKMLVLLFVCLLVLAGCSSKSEPQGGGAAKKAEPKVMKMAVATSKDRSLTKGLYKFAEIVEKETNGSIKVEVYPDGQLGGDVAVFEALKMGTIQGSTMSTGPIASFAPRIGVLDLPFLFKDRETAYKVLDGKIGQDLLNDLPSVGVIGLNYWENGFRHLTNNKREVKSVDDIKGLKIRTLENDLHIDLWKELGATPVPMVFTELFTALEQHVVDGQENPVGNVAINKFYEVQKYLTKTGHVYNASPLLISKKFWDTLTDKEKDIIKKAAEEARDYQRKLNQEEDEKMFDYLKQQGMVITELSPEEKQKFVEKVQPIYQKYAPKFGQDLVNELINAGK,not soluble
21,MKKRILSAVLVSGVTLSAAASVHAEDYDSQIAATNNAISNLASQQEAAQAQVATIQSQVSTLRTQKTELEAKNAELEKVSADLESEIQELSSKIVARQDSLAKQARSAQQNNTATSYINSILNSKSISEAITRITAISKVVTANNDLLTKQESDQKELAAKQEENQAAINTIAANKSELETTEAGLTTQQAELEAAQVTLAAELATAQNEKTSLVSAKSTAESVAASTAASVAQSQAIAESEATAQVVASSEAATSVASSEVAATSEAVAQPSETPVSETSTASEAAQEPASSETSEVQPESAAPAVSEAPASVAPVATSEAAPATSEAPASVAPVATSEAAPAVSEAPAPAAETHKVSAASTPNTYPVGQCTWGVKSLAPWAGNNWGNAKNWIASAQAAGHSVGTTPVAGAIAVWPNDGGGYGHVAYVTSASGANSIQVMESNYAGNMSISNYRGTFDPTSSAHGGSVFYIYPLEHHHHHH,soluble
22,MKKSILFICLLTLASTLAKVQAQEERNHGIIWSSLHGLEYGVKAGFNIGGTSPLPLPQEIRAITGYSPNVCFAIEGNVTKWFDKDKKWGMILGLRLENKGMETKARVKNYGMEIIGDGGEHLAGNWTGKVKTKFKASYFSIPILAAYQLSPRVRLSAGPYVSFMTSGDFNGYVSDGYLRKGDPTGTKVEFKDGNTAPYDFSKDLRSFQWGMQAGAEWKAFKHLTVHADLEWGLNDIFKKEFKTITFNMYPIYLNAGFGYAF,not soluble
23,MKKSLVVCALSAAVLLSGCETVNTTSGGVVGVDRKQSMFSMVSSAEVNQSYAQSYQQTLGEASSQGVLDKTSANAKRLQVIANRLIAQAPTFRPDCAQWKWEVNLIKSDELNANCGPGGKIIFYSGLIEKLKLTDDEIAAVMGHEIAHALREHGREAMSKQYAVGAGKQIATLFGVPQETVALGDNGVNLLMTLPNSRENENEADLIGLELAARAGYNPNAAISLWNKMGQAAGGSAPPEFMSTHPASTSRIASLQAAIPKVMPLYQAAKKSLEHHHHHH,not soluble
24,MKKTTLMSAVVATLSLVGCQSTTGSSDAQPEQTSHISQAVYEVEFHAAQSFLSQASQLEQSFADFCLAPKNDVEPVQQQWHSTMLAWMALQGQERGPATALEQSWNVQFWPDKKNTTGRKMSALTKADKVWTVEEISTQSVTVQGLGALEWLLYDDASTLNTNSNVCASGVAIAENLHDKAQIIANSWAENPWKSLQKTEWESEYISLLSNQLEYSMKKLSRPLAKIGHPRPYFSESWRSETSLSNLKANLESLHQLYFANGKGLDALLRAQGKTQLADRVAYQFDMALETWPEDKSLFSALQSVDGYRLVLAQYNKLEQLKYLIHEEVAIELGVVIGFNATDGD,not soluble
